Target: recombinant human IgG1 Fc fragment (recFc), residues 236–444 of the rituximab heavy chain, non-glycosylated homodimer (human)
Assay: crystal structure; co-crystal of the complex isolated by SEC after mixing affitin and Fc chain 4:1; hanging drop, 20 °C, 24% w/v PEG8000, 0.1 M Tris/HCl pH 8.5; space group P2_(1), 2.90 Å

stoichiometry N (chains in the oligomer): 2
Substance: recombinant human IgG1 Fc fragment (recFc), residues 236–444 of the rituximab heavy chain, non-glycosylated homodimer (domain or fragment)
